According to IntAct's records for PubMed 20562859:

Columns and labels:
[1] = target: atg10_human ATG10 (UniProt Q9H0Y0)
[2] = target: T1, kbtb6_human KBTBD6 (UniProt Q86V97)
T1 sequence: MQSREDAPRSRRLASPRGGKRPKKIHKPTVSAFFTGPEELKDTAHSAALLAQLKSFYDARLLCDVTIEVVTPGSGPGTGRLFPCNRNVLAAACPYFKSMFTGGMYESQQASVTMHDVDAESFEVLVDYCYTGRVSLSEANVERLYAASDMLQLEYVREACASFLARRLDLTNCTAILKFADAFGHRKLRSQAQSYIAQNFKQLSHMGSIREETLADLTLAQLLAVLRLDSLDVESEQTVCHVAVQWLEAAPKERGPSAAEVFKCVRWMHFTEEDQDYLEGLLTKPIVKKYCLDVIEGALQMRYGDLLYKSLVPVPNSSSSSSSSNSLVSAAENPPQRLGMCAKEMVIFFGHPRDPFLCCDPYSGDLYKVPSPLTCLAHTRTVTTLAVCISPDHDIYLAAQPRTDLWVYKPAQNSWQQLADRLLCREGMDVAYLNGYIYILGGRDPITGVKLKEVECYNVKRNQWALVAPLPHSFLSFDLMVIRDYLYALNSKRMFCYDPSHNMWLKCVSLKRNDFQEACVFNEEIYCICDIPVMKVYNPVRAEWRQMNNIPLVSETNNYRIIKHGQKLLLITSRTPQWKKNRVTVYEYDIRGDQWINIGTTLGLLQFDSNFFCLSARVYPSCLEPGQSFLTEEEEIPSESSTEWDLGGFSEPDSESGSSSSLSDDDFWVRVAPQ

[3] = target: T2, kbtb7_human KBTBD7 (UniProt Q8WVZ9)
T2 sequence: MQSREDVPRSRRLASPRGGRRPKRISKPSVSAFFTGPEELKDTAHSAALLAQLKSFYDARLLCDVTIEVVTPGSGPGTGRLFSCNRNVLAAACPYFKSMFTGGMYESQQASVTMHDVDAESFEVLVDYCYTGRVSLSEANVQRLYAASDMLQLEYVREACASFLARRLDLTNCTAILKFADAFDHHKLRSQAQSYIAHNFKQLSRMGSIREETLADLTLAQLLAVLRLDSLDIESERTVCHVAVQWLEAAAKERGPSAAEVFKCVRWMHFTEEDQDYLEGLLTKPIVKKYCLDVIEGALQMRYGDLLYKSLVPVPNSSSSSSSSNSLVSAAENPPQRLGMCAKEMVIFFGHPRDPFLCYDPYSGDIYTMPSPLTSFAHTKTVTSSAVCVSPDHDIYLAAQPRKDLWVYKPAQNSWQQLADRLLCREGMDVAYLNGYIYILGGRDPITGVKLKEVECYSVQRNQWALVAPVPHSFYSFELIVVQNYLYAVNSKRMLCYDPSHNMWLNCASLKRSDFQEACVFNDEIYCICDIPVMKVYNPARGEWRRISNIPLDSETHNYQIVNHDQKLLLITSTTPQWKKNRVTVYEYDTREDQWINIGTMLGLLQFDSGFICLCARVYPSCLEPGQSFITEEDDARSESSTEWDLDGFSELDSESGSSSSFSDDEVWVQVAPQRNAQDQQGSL

[4] = target: nedd4_human NEDD4 (UniProt P46934)
Chain of nedd4_human NEDD4 (P46934 whole entry): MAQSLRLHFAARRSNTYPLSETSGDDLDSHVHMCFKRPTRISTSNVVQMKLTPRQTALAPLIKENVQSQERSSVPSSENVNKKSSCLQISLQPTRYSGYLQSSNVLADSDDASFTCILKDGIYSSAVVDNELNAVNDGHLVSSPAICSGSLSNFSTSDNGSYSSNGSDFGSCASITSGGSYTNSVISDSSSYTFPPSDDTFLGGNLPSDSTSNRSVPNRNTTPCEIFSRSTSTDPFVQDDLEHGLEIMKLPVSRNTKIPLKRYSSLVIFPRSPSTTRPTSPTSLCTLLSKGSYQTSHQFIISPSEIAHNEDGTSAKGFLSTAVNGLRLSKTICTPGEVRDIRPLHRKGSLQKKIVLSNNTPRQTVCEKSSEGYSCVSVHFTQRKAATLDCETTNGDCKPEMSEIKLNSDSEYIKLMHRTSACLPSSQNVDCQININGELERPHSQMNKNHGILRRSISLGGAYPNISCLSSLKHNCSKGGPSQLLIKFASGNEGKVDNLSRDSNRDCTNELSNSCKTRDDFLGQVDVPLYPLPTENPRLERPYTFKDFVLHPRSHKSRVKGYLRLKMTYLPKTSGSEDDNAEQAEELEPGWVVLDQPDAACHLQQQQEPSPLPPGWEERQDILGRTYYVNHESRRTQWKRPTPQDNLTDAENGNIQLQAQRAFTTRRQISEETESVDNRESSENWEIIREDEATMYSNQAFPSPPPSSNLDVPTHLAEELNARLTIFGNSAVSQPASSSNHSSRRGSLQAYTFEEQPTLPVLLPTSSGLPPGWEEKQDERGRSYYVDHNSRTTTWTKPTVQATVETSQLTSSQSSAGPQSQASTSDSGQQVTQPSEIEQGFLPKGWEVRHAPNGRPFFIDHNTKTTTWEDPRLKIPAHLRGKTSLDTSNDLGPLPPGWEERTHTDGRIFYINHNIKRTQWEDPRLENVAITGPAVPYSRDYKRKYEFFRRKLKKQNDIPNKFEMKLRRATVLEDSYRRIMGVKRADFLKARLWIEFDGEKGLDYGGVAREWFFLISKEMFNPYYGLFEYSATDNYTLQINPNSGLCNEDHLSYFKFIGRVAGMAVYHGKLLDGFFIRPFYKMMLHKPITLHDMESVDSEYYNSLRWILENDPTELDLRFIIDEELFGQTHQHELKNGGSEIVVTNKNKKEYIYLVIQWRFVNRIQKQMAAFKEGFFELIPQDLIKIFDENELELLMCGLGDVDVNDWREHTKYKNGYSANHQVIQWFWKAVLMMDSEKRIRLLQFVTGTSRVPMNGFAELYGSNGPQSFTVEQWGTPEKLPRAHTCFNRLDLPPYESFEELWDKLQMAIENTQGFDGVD

[5] = target: T3, stk3_human STK3 (UniProt Q13188)
T3 sequence: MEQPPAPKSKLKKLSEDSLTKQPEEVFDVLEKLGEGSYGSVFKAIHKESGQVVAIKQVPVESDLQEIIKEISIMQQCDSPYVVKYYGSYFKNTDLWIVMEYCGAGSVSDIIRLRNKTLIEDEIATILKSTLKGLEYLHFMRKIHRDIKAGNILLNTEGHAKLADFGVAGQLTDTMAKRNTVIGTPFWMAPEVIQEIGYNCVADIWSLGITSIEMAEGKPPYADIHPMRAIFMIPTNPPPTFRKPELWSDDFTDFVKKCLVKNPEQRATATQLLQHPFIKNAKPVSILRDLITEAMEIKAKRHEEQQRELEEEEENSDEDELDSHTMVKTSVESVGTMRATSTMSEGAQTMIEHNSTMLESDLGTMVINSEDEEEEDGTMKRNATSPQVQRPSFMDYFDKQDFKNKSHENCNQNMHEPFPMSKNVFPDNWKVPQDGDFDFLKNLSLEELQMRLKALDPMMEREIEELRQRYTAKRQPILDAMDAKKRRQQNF

Chain of atg10_human ATG10 (Q9H0Y0 whole entry): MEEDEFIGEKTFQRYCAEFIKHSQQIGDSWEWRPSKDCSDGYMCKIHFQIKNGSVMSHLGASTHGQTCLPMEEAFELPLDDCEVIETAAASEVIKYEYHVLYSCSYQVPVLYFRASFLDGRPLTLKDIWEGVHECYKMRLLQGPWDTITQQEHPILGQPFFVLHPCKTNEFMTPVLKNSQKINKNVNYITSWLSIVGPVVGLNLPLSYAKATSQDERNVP

effect of a mutation on the interaction [1]	effect of a mutation on the interaction [2]	effect of a mutation on the interaction [3]	effect of a mutation on the interaction [4]	effect of a mutation on the interaction [5]	Substance
increasing interaction	decreasing interaction	decreasing interaction	decreasing interaction	increasing interaction	Microtubule-associated protein 1 light chain 3 beta (Homo sapiens) (from UniProt Q9GZQ8) F52A;L53A
decreasing interaction	disrupting interaction	disrupting interaction	decreasing interaction	decreasing interaction	Microtubule-associated protein 1 light chain 3 beta (Homo sapiens) (from UniProt Q9GZQ8) R69A
